# Patent US20240287172A1 (SCIRHOM, published 2024)
# Positions count from the first letter of the chain named.
# T1: hiR2-FL-K573A-T7 (human, UniProt Q6PJF5 1-856)
# T1 sequence: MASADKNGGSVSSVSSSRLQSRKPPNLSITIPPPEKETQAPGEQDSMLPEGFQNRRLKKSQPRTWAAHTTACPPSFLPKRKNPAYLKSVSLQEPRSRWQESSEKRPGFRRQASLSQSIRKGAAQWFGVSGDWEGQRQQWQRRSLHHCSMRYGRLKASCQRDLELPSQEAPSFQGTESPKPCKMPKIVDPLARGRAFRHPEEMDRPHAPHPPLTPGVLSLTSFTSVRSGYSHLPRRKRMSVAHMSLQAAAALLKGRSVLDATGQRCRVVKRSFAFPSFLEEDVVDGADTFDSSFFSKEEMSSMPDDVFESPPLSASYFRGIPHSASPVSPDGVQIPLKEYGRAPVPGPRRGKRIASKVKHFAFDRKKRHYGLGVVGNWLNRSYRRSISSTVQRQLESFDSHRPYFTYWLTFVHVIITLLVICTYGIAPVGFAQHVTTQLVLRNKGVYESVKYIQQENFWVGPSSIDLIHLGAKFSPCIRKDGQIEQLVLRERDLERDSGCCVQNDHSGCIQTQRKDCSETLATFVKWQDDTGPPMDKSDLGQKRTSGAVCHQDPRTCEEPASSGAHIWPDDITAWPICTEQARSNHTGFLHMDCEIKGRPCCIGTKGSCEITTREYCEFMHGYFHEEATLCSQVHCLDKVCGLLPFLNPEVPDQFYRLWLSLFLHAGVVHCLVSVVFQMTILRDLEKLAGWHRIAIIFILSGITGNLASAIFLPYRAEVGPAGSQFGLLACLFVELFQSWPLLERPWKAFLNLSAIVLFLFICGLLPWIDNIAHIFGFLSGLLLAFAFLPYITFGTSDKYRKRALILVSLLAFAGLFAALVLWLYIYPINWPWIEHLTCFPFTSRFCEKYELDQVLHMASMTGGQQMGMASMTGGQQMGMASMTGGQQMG
# T2: hiR2-FL-S583A-T7 (human, UniProt Q6PJF5 1-856)
# T2 sequence: T1 sequence with A573K, S583A
# B1: antibody 3 (antibody, V domains shown)
# VH: QVTLKESGPGILQPSQTLSLTCSFSGFSLTTFAMGIGWVRQPSGKGLEWLAHIWWDGEKYNNPVLKSRLTISKDTSKNQVFLRIANVDTPDTATYYCARISSIYYIIDNWGQGTSVTVSS
# VL: DIVLTQSPATLSVTPGHSVSLSCRASQSISNNLHWYQKKSHESPRLLIKYVSQSISGIPSRFSGSGSGTDFTLSINSVETEDFGMYFCQQSYNWPLTFGAGTKLELK
# notes: mouse IgG, kappa light chain; also called clone #3; purified antibody 3
# What was measured:
# hiR2-FL-K573A-T7 = molecular target: T1, hiR2-FL-K573A-T7; test: FACS on MEF-DKO cells expressing the variant, 3 µg/ml antibody
# How it was run: (§1)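 Read-out is PE fluorescence by flow cytometry after two-step staining: antibody at 3 μg/ml for 1 hour on ice, then PE-labelled goat anti-mouse IgG F(ab′)2 (1:100) for 1 hour on ice.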
# hiR2-FL-S583A-T7 = molecular target: T2, hiR2-FL-S583A-T7; test: as above
# How it was run: as §1
binder,measurement,setting,value
B1,loss of binding vs wild type,hiR2-FL-K573A-T7,≥ 30%
same,loss of binding vs wild type,hiR2-FL-S583A-T7,≥ 30%
